Data published in US20200087408A1 (ANAPTYSBIO, published 2020).
Positions count from the first letter of the chain named.

T1: extracellular domain of human IL-36R (human, UniProt Q9HB29 20-335)
T1 construct: extracellular domain; Immobilised on the chip in the BIACORE assay; soluble and bead-coupled in the KINEXA assay; also called soluble human IL-36R extracellular domain
T1 sequence (looked up): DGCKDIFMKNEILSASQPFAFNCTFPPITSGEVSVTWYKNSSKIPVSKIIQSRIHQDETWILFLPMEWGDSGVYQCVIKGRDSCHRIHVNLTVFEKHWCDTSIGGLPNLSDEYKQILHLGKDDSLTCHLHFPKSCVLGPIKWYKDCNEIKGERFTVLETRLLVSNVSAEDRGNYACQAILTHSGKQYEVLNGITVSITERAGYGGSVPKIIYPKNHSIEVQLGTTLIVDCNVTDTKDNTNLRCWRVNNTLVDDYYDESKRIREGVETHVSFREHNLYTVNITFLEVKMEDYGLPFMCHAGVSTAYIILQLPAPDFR

T2: human IL-36R (on cells) (human, UniProt Q9HB29 20-575)
T2 sequence (looked up): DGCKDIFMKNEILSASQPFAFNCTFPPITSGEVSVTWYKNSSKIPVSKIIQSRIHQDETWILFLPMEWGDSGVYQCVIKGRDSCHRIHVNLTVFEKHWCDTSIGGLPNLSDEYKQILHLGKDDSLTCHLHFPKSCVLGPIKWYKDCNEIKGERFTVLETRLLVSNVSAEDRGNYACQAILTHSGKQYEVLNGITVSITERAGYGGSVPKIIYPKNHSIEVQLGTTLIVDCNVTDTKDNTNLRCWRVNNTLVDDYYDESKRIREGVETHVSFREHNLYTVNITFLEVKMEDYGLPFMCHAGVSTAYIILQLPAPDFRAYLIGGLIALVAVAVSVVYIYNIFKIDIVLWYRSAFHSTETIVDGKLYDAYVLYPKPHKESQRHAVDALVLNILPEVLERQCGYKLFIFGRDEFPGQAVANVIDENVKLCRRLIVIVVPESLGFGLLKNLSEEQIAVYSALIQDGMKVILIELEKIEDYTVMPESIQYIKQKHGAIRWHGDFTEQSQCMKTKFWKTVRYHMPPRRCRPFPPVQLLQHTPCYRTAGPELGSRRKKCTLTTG

B1: Hzd 5D3 (APE6060) (antibody, V domains shown)
VH: QVQLVQSGAEVKKPGASVKVSCKASGYTFTNYWMNWVRQAPRQGLEWMGMFHPTGDVTRLNQKFKDRVTMTRDTSTSTVYMELSSLRSEDTAVYYCARTTSMIIGGFAYWGQGTLVTVSS
VL: DIVMTQTPLSLSVTPGQPASISCRSSKSLLHRNAITYFYWYLQKPGQPPQLLIYQMSNLASGVPDRFSGSGSGTDFTLKISRVEAEDVGVYYCAQNLELPLTFGGGTKVEIK
notes: also called 5D3 Humanized
B2: Hzd 5D3 (APE6194) (antibody, V domains shown)
VH: B1 VH with T54Y
VL: B1 VL with Q43H
notes: also called 5D3 Humanized
B3: Chimeric 18D4 (APE3847) (antibody, V domains shown)
VH: DVQFQESGPGLVKPSQSLSLTCTVTGYSITSDFAWNWIRQFPGNKLEWMGYISYSGDTNYNPSLKSRISITRDTSKNQFFLQLNSVTTEDTATYFCAIRGPYSFTYWGPGTLVTVSS
VL: DIQMTQTTSSLSASLGDRVTINCRASQDINNYLNWYQQKPDGTIRLLIYYTSRLHSGVPSRFSPNGSGTDYSLTINNLEQEDIATYFCQQGHTLPWTFGGGTKLEIK
B4: Hzd 18D4 (APE7247) (antibody, V domains shown)
VH: DVQFQESGPGLVKPSQTLSLTCTVTGYSITADFAWNWIRQPPGKGLEWIGYISYSGDTNYNPSLKSRVTITRDTSKNQFSLKLSSVTAADTAVYFCAIRGPYSFTYWGQGTLVTVSSA
VL: DIQMTQSPSSLSASVGDRVTITCRASQWINNYLNWYQQKPGKAPKLLIYYTSMLHSGVPSRFSPSGSGNDYTFTISSLQPEDIATYYCQQGHTLPWTFGGGTKVEIKRT
B5: APE6904 (antibody, V domains shown)
VH: DLQFQESGPGLVKPSQTLSLTCTVTGYSITADFAWNWIRQPPGKGLEWIGYISYSGDTNYNPSLKSRVTITRDTSKNQFSLKLSSVTAADTAVYFCAIRGPYSFTYWGQGTLVTVSS
VL: DIQMTQSPSSLSASVGDRVTITCRASQWINNYLNWYQQKPGKAPKLLIYYTSMLHSGVPSRFSPSGSGNDYTFTISSLQPEDIATYYCQQGHTLPWTFGGGTKVEIKR
notes: also called 18D4 Humanized
B6: Chimeric 1D9 (APE3798) (antibody, V domains shown)
VH: QVQLQQSGPELVKPGALVKISCKASGFTFTSYDINWVRQRPGQGLEWIGWIYPGDGSTKYNEKFKGKATLTADKSSSTAYMQLSSLTSENSAVYFCTRSFYTMDYWGQGTSVTVSS
VL: DIVMTQAAPSVPVTPGESVSISCRSSKSLLHSNGNTYLYWFLQRPGQSPQLLISRMSNLASGVPDRFSGSGSGTAFTLRISRVEAEDVGVYYCMQHLEYPFTFGSGTKLEIK
B7: Hzd 18D4 (APE5713) (antibody, V domains shown)
VH: B5 VH with D1Q, L2V, T25S, A31S, T71S
VL: DIQMTQSPSSLSASVGDRVTITCRASQDINNYLNWYQQKPGKAPKLLIYYTSRLHSGVPSRFSPSGSGTDYTFTISSLQPEDIATYYCQQGHTLPWTFGGGTKVEIK
B8: Chimeric 5D3 (APE3849) (antibody, V domains shown)
VH: QVQLQQSGPELVRPGASVRMSCKASDYTFTNYWMHWVKQRPGQGLEWIGMFDPSNSVTRLNQKFKDKATLNVDKSSNTAYIQFSSLTFEDSAVYYCARTTSMIIGGFAYWGQGTLVTVSS
VL: DIVMTQAAFSNPVTLGTSASISCRSSKSLLHSNGITYFYWYLQRPGQSPQLLIYQMSNLASGVPDRFSGSGSGTDFTLRISRVEAEDVGIYYCAQNLELPLTFGAGTKLELK

Assays:
[1] = target: cynomolgus IL-36R (on cells, allelic variant not stated) (cynomolgus monkey), A0A2K5; test: cell-based or functional assay
[2] = target: T1, extracellular domain of human IL-36R; test: BIACORE T200 SPR, human IL-36R extracellular domain immobilised, antibody injected
Method: The binding affinities of various purified antibodies comprising immunoglobulin heavy chain (HC) and light chain (LC) polypeptides described herein were evaluated using BIACORE™ T200 […] assays. BIACORE™ T200 evaluation software (GE Healthcare, Buckinghamshire, United Kingdom) is used to determine antibody-antigen binding kinetics and affinity. The extracellular domain of human IL-36R was immobilized at approximately 100 RU onto a CMS sensor chip (GE Healthcare, Waukesha, Wis.) using amine coupling chemistry. HBS-EP+ buffer (0.01 M HEPES, 0.15 M NaCl, 3 mM EDTA, 0.05% Polysorbate, pH 7.6) (Teknova, Hollister, Calif.) was used to reconstitute each antibody at various concentrations Each antibody concentration was then injected for two to three minutes over immobilized antigen at a flow rate of 30 μL/min, and allowed to dissociate for 15 minutes. The surface was regenerated with 60 μL of 3 M MgCl₂ after each cycle. Association and dissociation kinetic constants (kon and koff) were fit globally using a 1:1 binding model with mass transport with the BIACORE™ T200 evaluation software in order to report on- and off-rates (ka and kd, respectively), as well as affinities (KD).

human IL-36R (on cells) [3] = target: T2, human IL-36R (on cells); test: cell-based or functional assay
human IL-36R (on cells) [4] = target: T2, human IL-36R (on cells); test: cell-based or functional assay; remark: listed apart in the source
human IL-36R (on cells) [5] = target: T2, human IL-36R (on cells); test: cell-based or functional assay; remark: listed apart in the source
[6] = target: cynomolgus monkey IL-36R variant 3 (on cells) (cynomolgus monkey), A0A2K5; test: cell-based or functional assay
[7] = target: cynomolgus monkey IL-36R variant 2 (on cells) (cynomolgus monkey), A0A2K5; test: cell-based or functional assay
[8] = target: T1, extracellular domain of human IL-36R; test: KINEXA 3000 solution-phase equilibrium, soluble human IL-36R extracellular domain
Method: The binding affinities of various purified antibodies comprising immunoglobulin heavy chain (HC) and light chain (LC) polypeptides described herein also were evaluated using a KINEXA® 3000 assay (Sapidyne Instruments, Boise, Id.) assays. KINEXA® technology measures the amount of unbound/free antibody molecule in solution phase after incubation with varying concentrations of antigen. Measuring binding events in the solution phase with micro beads for maximized surface area avoids mass transport limitations and mobility effects inherent to methods that measure binding to a solid phase. For each experiment, 50 μg of soluble human or cyno IL-36R extracellular domain was amine-coupled to 50 mg of UltraLink Biosupport beads (Thermo Fisher Scientific, Waltham, Mass.). […] Antibody-antigen solution was then flowed over antigen-coupled beads at a rate of 0.25 mL/min. Free antibody captured by beads was detected using ALEXA FLUOR™ 647-conjugated AffiniPure Donkey Anti-Human IgG (H+L) (Jackson ImmunoResearch, West Grove, Pa.) (500 ng/ml). The KD and/or ABC (active binding concentration) of antibody was obtained from non-linear regression analysis using a one-site homogeneous binding model in the KINEXA™ Pro Software.

Sequence of cynomolgus IL-36R (on cells, allelic variant not stated) (cynomolgus monkey), A0A2K5 (chain, as listed by the source mutant): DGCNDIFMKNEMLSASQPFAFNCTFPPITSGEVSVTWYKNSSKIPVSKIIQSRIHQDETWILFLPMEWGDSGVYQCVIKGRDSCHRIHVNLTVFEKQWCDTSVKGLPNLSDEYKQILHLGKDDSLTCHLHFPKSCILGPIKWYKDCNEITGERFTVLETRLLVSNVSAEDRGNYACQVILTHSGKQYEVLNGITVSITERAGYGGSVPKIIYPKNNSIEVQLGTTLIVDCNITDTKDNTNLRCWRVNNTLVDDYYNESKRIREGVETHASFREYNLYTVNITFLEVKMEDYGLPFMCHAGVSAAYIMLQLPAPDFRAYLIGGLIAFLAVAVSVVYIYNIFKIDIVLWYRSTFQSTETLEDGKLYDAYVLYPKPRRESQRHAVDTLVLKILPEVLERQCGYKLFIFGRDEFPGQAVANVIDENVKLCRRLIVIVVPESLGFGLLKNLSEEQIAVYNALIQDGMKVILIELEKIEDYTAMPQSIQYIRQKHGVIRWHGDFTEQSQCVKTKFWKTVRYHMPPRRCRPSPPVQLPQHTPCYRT
Sequence of cynomolgus monkey IL-36R variant 2 (on cells) (cynomolgus monkey), A0A2K5 (chain, as listed by the source mutant): as above
Sequence of cynomolgus monkey IL-36R variant 3 (on cells) (cynomolgus monkey), A0A2K5 (chain, as listed by the source mutant): as above

Row | Binder | EC50 (nM), HEK cyno IL-36R IL-8 luciferase reporter assay, 300 ng/ml cIL-36γ [1] [nM] | EC50 (nM), IL-8 secretion by primary cynomolgus keratinocytes, 10 ng/ml cyno IL-36β [1] [nM] | EC50 (nM), IL-8 secretion by primary cynomolgus keratinocytes, 50 ng/ml cyno IL-36α [1] [nM] | EC50 (nM), IL-8 secretion by primary cynomolgus keratinocytes, 250 ng/ml cyno IL-36γ [1] [nM] | EC50 (nM), HEK human IL-36R IL-8 luciferase reporter assay, 20 ng/ml hIL-36β (human IL-36R (on cells) [3]) [nM] | EC50 (nM), HEK human IL-36R IL-8 luciferase reporter assay, 200 ng/ml hIL-36γ (human IL-36R (on cells) [3]) [nM] | EC50 (nM), IL-8 secretion by primary human monocytes, human IL-36β (human IL-36R (on cells) [4]) [nM] | EC50 (nM), IL-8 secretion by primary human monocytes, human IL-36γ (human IL-36R (on cells) [4]) [nM] | further results
1 | B1 | 0.29 | 1.4 | 1.4 | 1 | 0.24 | 0.35 | 0.9 | 0.79 | EC50 (nM), HEK cyno IL-36R IL-8 luciferase reporter assay, 2 µg/ml cIL-36α [1]: 0.067 nM; EC50 (nM), HEK cyno IL-36R IL-8 luciferase reporter assay, 10 µg/ml cIL-36β [1]: 0.17 nM; EC50 (nM), IL-8 secretion by primary cynomolgus PBMCs, 10 ng/ml cyno IL-36β [1]: 1.7 nM; EC50 (nM), IL-8 secretion by primary cynomolgus PBMCs, 50 ng/ml cyno IL-36α [1]: 0.98 nM; EC50 (nM), IL-8 secretion by primary cynomolgus PBMCs, 250 ng/ml cyno IL-36γ [1]: 1.4 nM; Kd [2]: 0.05 nM; EC50 (nM), HEK human IL-36R IL-8 luciferase reporter assay, 50 ng/ml hIL-36α (human IL-36R (on cells) [3]): 0.23 nM; EC50 (nM), IL-8 secretion by primary human monocytes, human IL-36α (human IL-36R (on cells) [4]): 0.081 nM; EC50 (nM), IL-8 secretion by primary human keratinocytes, 1 ng/ml human IL-36β (human IL-36R (on cells) [5]): 0.217 nM; EC50 (nM), IL-8 secretion by primary human keratinocytes, 10 ng/ml human IL-36α (human IL-36R (on cells) [5]): 0.08 nM; EC50 (nM), IL-8 secretion by primary human keratinocytes, 100 ng/ml human IL-36γ (human IL-36R (on cells) [5]): 0.08 nM
2 | B2 | 0.31 | 2 | 1.2 | 1.2 | 0.3 | 0.45 | 0.105 | 0.084 | EC50 (nM), HEK cyno IL-36R IL-8 luciferase reporter assay, 2 µg/ml cIL-36α [1]: 0.073 nM; EC50 (nM), HEK cyno IL-36R IL-8 luciferase reporter assay, 10 µg/ml cIL-36β [1]: 0.19 nM; EC50 (nM), IL-8 secretion by primary cynomolgus PBMCs, 10 ng/ml cyno IL-36β [1]: 1.6 nM; EC50 (nM), IL-8 secretion by primary cynomolgus PBMCs, 50 ng/ml cyno IL-36α [1]: 1.5 nM; EC50 (nM), IL-8 secretion by primary cynomolgus PBMCs, 250 ng/ml cyno IL-36γ [1]: 1.6 nM; Kd [2]: 0.022 nM; EC50 (nM), HEK human IL-36R IL-8 luciferase reporter assay, 50 ng/ml hIL-36α (human IL-36R (on cells) [3]): 0.17 nM; EC50 (nM), IL-8 secretion by primary human monocytes, human IL-36α (human IL-36R (on cells) [4]): 0.09 nM; EC50 (nM), IL-8 secretion by primary human keratinocytes, 1 ng/ml human IL-36β (human IL-36R (on cells) [5]): 0.164 nM; EC50 (nM), IL-8 secretion by primary human keratinocytes, 10 ng/ml human IL-36α (human IL-36R (on cells) [5]): 0.105 nM; EC50 (nM), IL-8 secretion by primary human keratinocytes, 100 ng/ml human IL-36γ (human IL-36R (on cells) [5]): 0.083 nM
3 | B3 | 0.51 | – | – | – | 4.2 | 3.6 | 6 | 3 | –
4 | B4 | 0.24 | 1.8 | 2.3 | 5.6 | – | – | – | – | EC50 (nM), IL-8 luciferase reporter assay, 300 ng/ml IL-36γ (Cyno IL-36R variant 3) [6]: 0.42 nM; EC50 (nM), IL-8 luciferase reporter assay, 300 ng/ml IL-36γ (Cyno IL-36R variant 2) [7]: 0.065 nM
5 | B5 | – | – | – | – | – | – | – | – | Kd [8]: 0.027 nM
6 | B6 | – | – | – | – | 0.267 | 0.093 | – | – | –
7 | B7 | – | – | – | – | – | 11 | – | – | –
8 | B8 | – | – | – | – | 1.3 | 3.1 | – | – | –
